Measurements as given in patent US20200016201A1, “CHIMERIC ANTIGEN RECEPTORS AND COMPOSITIONS AND METHODS OF USE THEREOF” (published 2020).

Target: Lym-1 antigen (HLA-Dr10) on Raji cells (human)
Assay: avidity constant, Scatchard plot analysis on the target tumor cell line (Raji)

B1: Lym-1 (antibody, V domains shown)
VH: QLKESGPGLVAPSQSLSITCTISGFSLTSYGVHWVRQPPGKGLEWLVVIWSDGSTTYNSALKSRLSISKDNSKSQVFLKMNSLQTDDTAIYYCASHYGSTLAFASWGHGTLVTVSA
VL: DIQMTQSPASLSASVGETVTIICRASVNIYSYLAWYQQKQGKSPQLLVYNAKILAEGVPSRFSGSGSGTQFSLKINSLQPEDFGSYYCQHHYGTFTFGSGTKLEIK
Ka: 4.02e+08 M⁻¹
